# Results taken from patent US20240034813A1 (Janssen / Centocor, published 2024).
# B1: amivantamab (bispecific antibody, human IgG1, kappa)
# heavy 1: not shown
# light 1: not shown
# heavy 2: not shown
# light 2: DIQMTQSPSSVSASVGDRVTITCRASQGISNWLAWFQHKPGKAPKLLIYAASSLLSGVPSRFSGSGSGTDFTLTISSLQPEDFATYYCQQANSFPITFGQGTRLEIKRTVAAPSVFIFPPSDEQLKSGTASVVCLLNNFYPREAKVQWKVDNALQSGNSQESVTEQDSKDSTYSLSSTLTLSKADYEKHKVYACEVTHQGLSSPVTKSFNRGEC
# notes: The samples tested were high concentration (160 mg/mL) formulations, fresh or stored or stressed; also called JNJ-61186372; bispecific EGFR-cMet antibody
# Key:
# [1] = biological target: T1, recombinant cMet/HGFR with c-terminal His-tag, Cy5-labeled (UniProt P08581 25-932, limits assumed, Cy5 label (reacted with Cy5 Mono NHS Ester; sites not stated)); experiment: competitive TR-FRET (Eu-amivantamab/Cy5-c-MET), EC50 ratio vs Reference Material; Ex. 12 drug product with rHuPH20, 5 months at 5 C
# T1 construct: Commercial protein; also called Cy5-c-MET; Cy5-labeled c-MET antigen; not shown: C-terminal His-tag
# Text: (§1) In this procedure, varying concentrations of unlabeled bispecific EGFR-cMet antibody sample compete with donor fluorophore (Europium (Eu) chelate) labeled bispecific EGFR-cMet antibody for binding to an acceptor fluorophore (Cy5)-labeled c-MET antigen. Excitation of the donor fluorophore results in a transfer of energy to the bound acceptor fluorophore (FRET process). The resultant FRET is detected by emission of light at 665 nm using a microplate reader capable of measuring time-resolved fluorescence. Sample dose response curves are compared to the Reference Material (RM).
# (§2) c-MET Binding Materials and Methods. Certified commercial cMet, a recombinant cMet/HGFR with c-terminal His-tag is reacted with certified commercial Cy5 Mono NHS Ester to produce Cy5-labeled c-MET. Validated bispecific EGFR-cMet antibody is reacted with certified commercial Europium (Eu) chelate to produce Eu labeled bispecific EGFR-cMet antibody. […] Fluorescence is then measured by spectrophotometry at 665 nm, plotted against antibody concentration and analyzed by a four-parameter logistic model. The antibody concentration required to obtain half of the maximum fluorescence response (EC50) is determined for RM, assay control and samples. The potencies of assay control and samples are calculated based on the ratio of the sample (or control) and RM EC50 values and reported as a percentage activity relative to the RM.
# [2] = biological target: T2, recombinant human EGFR/ErbB1/HER1 with C-terminal His tag, Cy5-labeled (human, UniProt P00533 25-645, Cy5 label (reacted with Cy5 Mono NHS Ester; sites not stated)); experiment: competitive TR-FRET (Eu-amivantamab/Cy5-EGFR), EC50 ratio vs Reference Material; Ex. 12 drug product with rHuPH20, 6 months at 5 C
# T2 construct: Commercial protein; also called Cy5-EGFR; Cy5-labeled EGFR antigen; not shown: C-terminal His tag
# Text: as §1, with “EGFR” for “c-MET”, “RM.” for “Reference Material (RM).”
# as §2, with “EGFR” for “c-MET”, “EGFR,” for “cMet,”, “human EGFR/ErbB1/HER1” for “cMet/HGFR”, “C-terminal His tag” for “c-terminal His-tag”, “EGFR.” for “c-MET.”, “Eu-labeled” for “Eu labeled”
# [3] = biological target: T2, recombinant human EGFR/ErbB1/HER1 with …; experiment: competitive TR-FRET (Eu-amivantamab/Cy5-EGFR), EC50 ratio vs Reference Material; Ex. 2 Formulation 3 (acetate), T0, 25 C table
# Text: as §1, with “EGFR” for “c-MET”, “RM.” for “Reference Material (RM).”
# as §2, with “EGFR” for “c-MET”, “EGFR,” for “cMet,”, “human EGFR/ErbB1/HER1” for “cMet/HGFR”, “C-terminal His tag” for “c-terminal His-tag”, “EGFR.” for “c-MET.”, “Eu-labeled” for “Eu labeled”
# [4] = biological target: T2, recombinant human EGFR/ErbB1/HER1 with …; experiment: competitive TR-FRET (Eu-amivantamab/Cy5-EGFR), EC50 ratio vs Reference Material; Ex. 11 drug product, 0 months, 5 C table
# Text: as §1, with “EGFR” for “c-MET”, “RM.” for “Reference Material (RM).”
# as §2, with “EGFR” for “c-MET”, “EGFR,” for “cMet,”, “human EGFR/ErbB1/HER1” for “cMet/HGFR”, “C-terminal His tag” for “c-terminal His-tag”, “EGFR.” for “c-MET.”, “Eu-labeled” for “Eu labeled”
# [5] = biological target: T1, recombinant cMet/HGFR with c-terminal …; experiment: competitive TR-FRET (Eu-amivantamab/Cy5-c-MET), EC50 ratio vs Reference Material; Ex. 3 acetate formulation, 6 months at 25 C, untreated control
# Text: as §1, §2
# [6] = biological target: T1, recombinant cMet/HGFR with c-terminal …; experiment: competitive TR-FRET (Eu-amivantamab/Cy5-c-MET), EC50 ratio vs Reference Material; Ex. 12 drug product with rHuPH20, 0 months, 25 C table
# Text: as §1, §2
# [7] = biological target: T1, recombinant cMet/HGFR with c-terminal …; experiment: competitive TR-FRET (Eu-amivantamab/Cy5-c-MET), EC50 ratio vs Reference Material; Ex. 2 Formulation 2 (50 mM histidine), 3 months at 40 C
# Text: as §1, §2
# [8] = biological target: T1, recombinant cMet/HGFR with c-terminal …; experiment: competitive TR-FRET (Eu-amivantamab/Cy5-c-MET), EC50 ratio vs Reference Material; Ex. 2 Formulation 1 (10 mM histidine), 3 months at 40 C
# Text: as §1, §2
binder,measurement,setting,value
B1,cMET Binding activity relative to Reference Material (%),[1],100%
same,EGFR Binding activity relative to Reference Material (%),[2],89%
same,EGFR Binding % activity relative to RM,[3],103%
same,EGFR Binding activity relative to Reference Material (%),[4],89%
same,cMET Binding % activity relative to RM,[5],99%
same,cMET Binding activity relative to Reference Material (%),[6],91%
same,cMET Binding % activity relative to RM,[7],77%
same,cMET Binding % activity relative to RM,[8],67%
